In assay [1] the test system is Jurkat cells. Kind of assay: Linker length, ER regulated CD40L, % CD40L positive Jurkat cells. In kind it is cell-based. The procedure:
Jurkat cells were lentivirally transduced and 24 hours after transduction were treated with DMSO or 1 μM Bazedoxifene for another 24 hours and analyzed by flow cytometry for surface expression of CD40L. […] In Table 33, SR indicates stabilization ratio.

The subject of assay [2] is T cells (CD4 and CD8 positive). Kind of assay: Bazedoxifene dose response, CD40L MFI in CD4 and CD8 positive T cells (day 4, freeze/thaw, restimulation). The assay is classed as cell-based. On the procedure:
Dose response with Bazedoxifene in T cells were conducted for OT-001966, OT-001967, OT-001666. Expression of CD40L was measured at (a) day 4 after transduction, (b) after freezing and thawing the cells or (c) after freezing and thawing the cells followed by restimulation with CD3/CD28 beads. The CD40L MFI (median fluorescence intensity) within CD4 and CD8 positive subpopulations is shown in Table 34 and Table 35 respectively.

For a further assay, the system named is HEK293T cells. Kind of assay: CD40L-ecDHFR constructs, CD40L surface expression in transfected HEK293T cells. In kind it is cell-based, human. Particulars: for SR (for % CD40L) / TMP/vehicle ratio of CD40L median fluorescence intensity: TMP (50 μM) versus Vehicle. The procedure: HEK293T cells were transiently transfected with the constructs in Table 39 (1 μg of DNA). 24 hours after transfection, the media was removed and replaced with fresh medium containing 50 μM TMP or DMSO. Another 24 hours later cells were analyzed by flow cytometry for CD40L surface expression. Table 39 provides CD40L expression as both % CD40L positive cells and the Median fluorescence intensity (MFI) values.

Assay [3] has as its system Jurkat cells. The assay can be described thus: In vivo CD40L regulation in Jurkat cells harvested from bone marrow of NSG mice. Particulars: for CD40L MFI values / Percent CD40L positive cells: Jurkat cells from bone marrow, day 16. From the text: Jurkat cells stably expressing OT-001661, OT-002034 were intravenously infused into 8-week old NSG mice (20 million cells per mouse). Starting by day 15, mice were orally dosed according to the study design shown in Table 42 and Jurkat cells were harvested on day 16 from the bone marrow and analyzed by FACS. In Tables 41 and 42, TMP refers to Trimethoprim and all dosing is relative to “0 hr” time point on day 16. The results are shown in Table 43 and Table 44 where “EV” refers to empty vector control.

Setting [4] is: Jurkat cells from bone marrow of mice treated with TMP versus vehicle control or empty vector.
[5] abbreviates: individual mice, TMP 500 mg/kg 3x oral.

“And” between values parts separate entries of the source, which are not always exact repeats. Equal entries are not always repeated.

B1: OT-001967: ER regulated CD40L construct with varied linker length (protein)
chain: MSLALSLTADQMVSALLDAEPPILYSEYDPTRPFSEASMMGLLTNLADRELVHMINWAKRVPGFVDLTLHDQVHLLECAWMEILMIGLVWRSMEHPGKLLFAPNLLLDRDQGKCVEGGVEIFDMLLATSSRFRMMNLQGEEFVCLKSIILLNSGVYTFLSSTLKSLEEKDHIHRVLDKITDTLIHLMAKAGLTLQQQHQRLAQLLLILSHIRHMSNKRMEHLYSMKCKNVVPLSDLLLEMLDAHRLGSMIETYNQTSPRSAATGLPISMKIFMYLLTVFLITQMIGSALFAVYLHRRLDKIEDERNLHEDFVFMKTIQRCNTGERSLSLLNCEEIKSQFEGFVKDIMLNKEETKKENSFEMQKGDQNPQIAAHVISEASSKTTSVLQWAEKGYYTMSNNLVTLENGKQLTVKRQGLYYIYAQVTFCSNREASSQAPFIASLCLKSPGRFERILLRAANTHSSAKPCGQQSIHLGGVFELQPGASVFVNVTDPSQVSHGTGFTSFGLLKL
As to B1, the “Percent of Jurkat cells expressing CD40L” value is reported as 30% in the assay with Jurkat cells [1] (1 μM Bazedoxifene) and 2% in the assay with Jurkat cells [1] (DMSO). This molecule displayed an SR with Jurkat cells [1] (1 μM Bazedoxifene versus DMSO, % CD40L positive Jurkat cells) of 15. Moreover, the “CD40L expression (MFI)” value in assay [2] (CD4+ cells, Day 5, Bazedoxifene 0.01 nM) is listed as 473; in assay [2] (CD4+ cells, Day 5, Bazedoxifene 0.1 nM), 474; in assay [2] (CD4+ cells, Day 5, Bazedoxifene 1 nM), 483; in assay [2] (CD4+ cells, Day 5, Bazedoxifene 10 nM), 497; in assay [2] (CD4+ cells, Day 5, Bazedoxifene 100 nM), 630; in assay [2] (CD4+ cells, Day 5, Bazedoxifene 1000 nM) it was 998. Further, the “CD40L expression (MFI)” value in assay [2] (CD4+ cells, Day 5, Bazedoxifene 10000 nM) is recorded as 1000; in assay [2] (CD4+ cells, Post Thaw, Bazedoxifene 0.01 nM), 156; in assay [2] (CD4+ cells, Post Thaw, Bazedoxifene 0.1 nM) it was 160; in assay [2] (CD4+ cells, Post Thaw, Bazedoxifene 1 nM) it was 161; in assay [2] (CD4+ cells, Post Thaw, Bazedoxifene 10 nM), 172; in assay [2] (CD4+ cells, Post Thaw, Bazedoxifene 100 nM), 200. Besides, the “CD40L expression (MFI)” value in assay [2] (CD4+ cells, Post Thaw, Bazedoxifene 1000 nM) is 223; in assay [2] (CD4+ cells, Post Thaw, Bazedoxifene 10000 nM), 457; in assay [2] (CD4+ cells, Restim, Bazedoxifene 0.01 nM), 913; in assay [2] (CD4+ cells, Restim, Bazedoxifene 0.1 nM) it was 922; in assay [2] (CD4+ cells, Restim, Bazedoxifene 1 nM) it was 913; in assay [2] (CD4+ cells, Restim, Bazedoxifene 10 nM), 1131. Further, the “CD40L expression (MFI)” value was 1549 in assay [2] (CD4+ cells, Restim, Bazedoxifene 100 nM); 1232 in assay [2] (CD4+ cells, Restim, Bazedoxifene 1000 nM); 291 in assay [2] (CD4+ cells, Restim, Bazedoxifene 10000 nM); 153 in assay [2] (CD8+ cells, Day 5, Bazedoxifene 0.01 nM); 153 in assay [2] (CD8+ cells, Day 5, Bazedoxifene 0.1 nM); 157 in assay [2] (CD8+ cells, Day 5, Bazedoxifene 1 nM). Also, the “CD40L expression (MFI)” value in assay [2] (CD8+ cells, Day 5, Bazedoxifene 10 nM) turned out to be 158; in assay [2] (CD8+ cells, Day 5, Bazedoxifene 100 nM), 226; in assay [2] (CD8+ cells, Day 5, Bazedoxifene 1000 nM), 424; in assay [2] (CD8+ cells, Day 5, Bazedoxifene 10000 nM), 392; in assay [2] (CD8+ cells, Post Thaw, Bazedoxifene 0.01 nM), 108; in assay [2] (CD8+ cells, Post Thaw, Bazedoxifene 0.1 nM), 105. The “CD40L expression (MFI)” value in assay [2] (CD8+ cells, Post Thaw, Bazedoxifene 1 nM) turned out to be 108; in assay [2] (CD8+ cells, Post Thaw, Bazedoxifene 10 nM), 114; in assay [2] (CD8+ cells, Post Thaw, Bazedoxifene 100 nM), 149; in assay [2] (CD8+ cells, Post Thaw, Bazedoxifene 1000 nM), 178; in assay [2] (CD8+ cells, Post Thaw, Bazedoxifene 10000 nM), 263; in assay [2] (CD8+ cells, Restim, Bazedoxifene 0.1 nM), 269. The “CD40L expression (MFI)” value in assay [2] (CD8+ cells, Restim, Bazedoxifene 1 nM) is on record as 274; in assay [2] (CD8+ cells, Restim, Bazedoxifene 10 nM) it was 265; in assay [2] (CD8+ cells, Restim, Bazedoxifene 100 nM) it was 326; in assay [2] (CD8+ cells, Restim, Bazedoxifene 1000 nM), 445; in assay [2] (CD8+ cells, Restim, Bazedoxifene 10000 nM), 372.

B2: OT-002035: CD40L-ecDHFR construct of Table 39 (protein)
chain: MSGISLIAALAVDRVIGMENAMPWNLPADLAWFKRNTLNKPVIMGRHTWESIGRPLPGRKNIILSSQPGTDDRVTWVKSVDEAIAACGDVPEIMVIGGGRVREQFLPKAQKLYLTHIDAEVEGDTHFPDYEPDDWESVFSEFHDADAQNSHSYCFEILERRHMIETYNQTSPRSAATGLPISMKIFMYLLTVFLITQMIGSALFAVYLHRRLDKIEDERNLHEDFVFMKTIQRCNTGERSLSLLNCEEIKSQFEGFVKDIMLNKEETKKENSFEMQKGDQNPQIAAHVISEASSKTTSVLQWAEKGYYTMSNNLVTLENGKQLTVKRQGLYYIYAQVTFCSNREASSQAPFIASLCLKSPGRFERILLRAANTHSSAKPCGQQSIHLGGVFELQPGASVFVNVTDPSQVSHGTGFTSFGLLKL
With B2, the “TMP mediated expression of CD40L” value with HEK293T cells (HEK293T cells, 50 μM TMP or DMSO 24 hours) was “exception”. In addition, in the assay with HEK293T cells (TMP (50 μM)), the “% CD40L” value worked out at 23.8% and the “MFI (Median)” value was 8311. For the same molecule, in the assay with HEK293T cells, the “SR (for % CD40L)” value is listed as 0.89 and the “TMP/vehicle ratio of CD40L median fluorescence intensity” value is 0.97. In the assay on HEK293T cells (Vehicle), the “% CD40L” value was 26.7% and the “MFI (Median)” value is 8535.

B3: OT-002034: TMP regulated CD40L construct stably expressed in Jurkat cells (protein)
chain: MSGISLIAALAVDRVIGMENAMPWNLPADLAWFKRNTLNKPVIMGRHTWESIGRPLPGRKNIILSSQPGTDDRVTWVKSVDEAIAACGDVPEIMVIGGGRVQEQFLPKAQKLYLTHIDAEVEGDTHFPDYEPDDWESVFSEFHDADAQNSHSYCFEILERRHMIETYNQTSPRSAATGLPISMKIFMYLLTVFLITQMIGSALFAVYLHRRLDKIEDERNLHEDFVFMKTIQRCNTGERSLSLLNCEEIKSQFEGFVKDIMLNKEETKKENSFEMQKGDQNPQIAAHVISEASSKTTSVLQWAEKGYYTMSNNLVTLENGKQLTVKRQGLYYIYAQVTFCSNREASSQAPFIASLCLKSPGRFERILLRAANTHSSAKPCGQQSIHLGGVFELQPGASVFVNVTDPSQVSHGTGFTSFGLLKL
In the case of B3, in the assay with HEK293T cells (TMP (50 μM)), the “% CD40L” value is 71.1% and the “MFI (Median)” value is 20569. Further, in the assay on HEK293T cells, the “SR (for % CD40L)” value is recorded as 2.44 and the “TMP/vehicle ratio of CD40L median fluorescence intensity” value turned out to be 2.59. In the assay on HEK293T cells (Vehicle), the “% CD40L” value is listed as 29.1% and the “MFI (Median)” value was found to be 7957. Further, in the assay with Jurkat cells [3] (Average, TMP 500 mg/kg 3x oral), the “CD40L MFI values” came to 520.75 and the “Percent CD40L positive cells” value came to 53.4%. Further, in the assay with Jurkat cells [3] (Average, Vehicle), the “CD40L MFI values” is 93.65 and the “Percent CD40L positive cells” value is reported as 1.82%. In addition, in the assay with Jurkat cells [3] (setting [4]), the “% CD40L positive cells” value is reported as “increased” and the “CD40L values (MFI)” value is “increased”. In the assay on Jurkat cells [3] (setting [5]), the “CD40L MFI values” was 608 and 542 and 505 and 428; the “Percent CD40L positive cells” value was 61% and 56.3% and 52.2% and 44.1%. In the assay on Jurkat cells [3] (individual mice, Vehicle), the “CD40L MFI values” was 101 and 80.6 and 97.9 and 95.1; the “Percent CD40L positive cells” value is 2.36% and 0.83% and 2.17% and 1.92%.

Values taken from patent US20220175781A1, “CD40L COMPOSITIONS AND METHODS FOR TUNABLE REGULATION” (Obsidian Therapeutics, Inc., priority 2019, published 2022).
